Where a chain is given by its changes, count along the chain named.

One experiment addresses T1, Human CEACAM8 (human, UniProt P31997 35-320, limits assumed).
T1 sequence (looked up): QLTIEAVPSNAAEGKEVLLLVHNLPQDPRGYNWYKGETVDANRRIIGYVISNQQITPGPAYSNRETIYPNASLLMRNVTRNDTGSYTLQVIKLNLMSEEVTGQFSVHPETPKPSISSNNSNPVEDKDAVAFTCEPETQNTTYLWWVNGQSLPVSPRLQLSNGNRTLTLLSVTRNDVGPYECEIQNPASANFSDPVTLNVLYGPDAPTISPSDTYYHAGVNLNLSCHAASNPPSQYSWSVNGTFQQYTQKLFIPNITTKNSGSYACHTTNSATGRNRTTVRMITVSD
Kind of experiment: SPR, 37C, pH 7.4. Background: Surface plasmon resonance follows binding to a sensor surface in real time, without labels.

For a further experiment, the target named is T2, Human CEACAM1 (human, UniProt P13688 35-428, limits assumed).
T2 sequence (looked up): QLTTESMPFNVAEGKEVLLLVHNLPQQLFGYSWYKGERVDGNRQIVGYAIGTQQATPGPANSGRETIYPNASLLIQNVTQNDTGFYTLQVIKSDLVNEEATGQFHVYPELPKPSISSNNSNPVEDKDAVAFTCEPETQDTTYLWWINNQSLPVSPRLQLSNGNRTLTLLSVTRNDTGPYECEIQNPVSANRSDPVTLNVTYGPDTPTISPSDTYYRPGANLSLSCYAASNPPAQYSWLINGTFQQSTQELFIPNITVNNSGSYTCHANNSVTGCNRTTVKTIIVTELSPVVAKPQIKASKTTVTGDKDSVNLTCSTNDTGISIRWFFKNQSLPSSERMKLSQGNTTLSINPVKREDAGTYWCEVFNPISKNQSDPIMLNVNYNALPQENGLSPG
Put plainly: SPR, 37C, pH 7.4. The procedure:
(§1) To determine the affinity and cross-reactivity of CEACAM5 TriNKET molecules, AB0411, AB0466, or AB0621 TriNKETs were captured using an anti-human Fc capture antibody (Cytiva, #BR100839) immobilized onto a Biacore CM5 standard surface sensor chip following manufacturer instructions. Human or cynomolgus CEACAM5 were titrated over captured AB0411, AB0466, and AB0621 as 2-fold serial dilutions starting from 300 nM. Association was monitored for 300 sec and dissociation was monitored for 600 sec. The assay was run at 37° C. at pH 7.4 and 6.0. The surface of the CM5 chip was regenerated with 10 mM glycine pH 1.5 for 20 sec at 100 μL/min.
Binding to human and cynomolgus CEACAM1, 6, and 8 was assessed by SPR using the same protocol as for CEACAM5 but using up to 600 and 1200 nM for titration of each protein. There were no detectable binding signals at these concentrations for AB0621. In contrast, reproducible weak binding signals were detected for AB0411 and AB0466, but these two TriNKETs also bound to different epitope(s) on the N-terminus of CEACAM5. Typical weak binding sensorgrams for AB0411 and AB0466 against human CEACAM1 and 6 indicated weak but notable signals compared to AB0621. […]

Another experiment addresses T3, Cynomolgus CEACAM5 (cynomolgus monkey).
T3 construct: also called cyno CEACAM5
Kind of experiment: SPR, anti-hFc capture, 37C, pH 6.0. The procedure:
as §1

Experiment [1] concerns the target T4, human FcγRIIA R131 (human, UniProt P12318 34-218, limits assumed).
T4 sequence (looked up): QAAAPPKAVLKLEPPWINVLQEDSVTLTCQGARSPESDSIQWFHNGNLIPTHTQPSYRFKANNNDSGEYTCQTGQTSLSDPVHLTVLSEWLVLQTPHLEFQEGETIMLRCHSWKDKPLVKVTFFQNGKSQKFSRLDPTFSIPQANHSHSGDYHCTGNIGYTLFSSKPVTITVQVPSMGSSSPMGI
Kind of experiment: SPR, AB0621 on Protein A chip, 25C, pH 7.4. The procedure:
(§2) AB0621 was captured onto a Protein A chip (Cytiva, #29127556). Human FcγRs were titrated over captured AB0621 as 3-fold serial dilutions starting from 300 nM for FcγRI, 1000 nM for FcγRIIA R131 and H131, and 3000 nM for FcγRIIB and FcγRIIIB. Association was monitored for 120 sec and dissociation was monitored for 180 sec. Assays were run at 25° C. at pH 7.4. The surface of the chip was regenerated with 10 mM glycine pH 1.5 for 20 sec at 30 μL/min.

A further experiment concerns the target human FcγRIIIB (human, UniProt O75015 17-200, limits assumed). Put plainly: SPR, AB0621 on Protein A chip, 25C, pH 7.4. The procedure:
as §2

The target in a further experiment is human FcγRI (human, UniProt P12314 16-288, limits assumed). Kind of experiment: SPR, AB0621 on Protein A chip, 25C, pH 7.4; reference not named. The procedure:
as §2

In another experiment the target is T5, human FcγRIIA H131 (human, UniProt P12318 34-218, limits assumed).
T5 sequence (looked up): T4 sequence (looked up) with R134H
The experiment is described as above. The procedure: as §2

The target in experiment [2] is T4, human FcγRIIA R131. The experiment is described as above. The procedure:
as §2

The target of the next experiment is T6, human FcγRIIB (human, UniProt P31994 43-217, limits assumed).
T6 sequence (looked up): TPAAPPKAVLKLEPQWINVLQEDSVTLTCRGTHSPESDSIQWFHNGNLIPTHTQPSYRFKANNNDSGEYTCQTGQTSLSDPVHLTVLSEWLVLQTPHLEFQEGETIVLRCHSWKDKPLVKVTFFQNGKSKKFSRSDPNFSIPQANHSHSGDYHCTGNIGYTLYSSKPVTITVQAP
The experiment is described as above. The procedure: as §2

Experiment [3] addresses T7, cynomolgus CEACAM5 on Ba/F3 cells (cynomolgus monkey).
T7 construct: whole, on cells
Put plainly: flow cytometry on Ba/F3 cells expressing cynomolgus CEACAM5, fold over background (FOB), 5-fold dilutions from 1600 nM. The procedure:
To examine the binding specificity of the TriNKETs to CEACAM5 compared to other CEACAM family members, Ba/F3 cells were engineered to express one of human CEACAM1, CEACAM6, CEACAM8, or cynomolgus CEACAM5. CEACAM5 TriNKETs were evaluated by flow cytometry starting at 1600 nM followed by 7 5-fold dilutions.
(Flow cytometry measures light scatter and fluorescence of single cells or particles in a stream.)

Sequence of human FcγRI (P12314 16-288 limits assumed): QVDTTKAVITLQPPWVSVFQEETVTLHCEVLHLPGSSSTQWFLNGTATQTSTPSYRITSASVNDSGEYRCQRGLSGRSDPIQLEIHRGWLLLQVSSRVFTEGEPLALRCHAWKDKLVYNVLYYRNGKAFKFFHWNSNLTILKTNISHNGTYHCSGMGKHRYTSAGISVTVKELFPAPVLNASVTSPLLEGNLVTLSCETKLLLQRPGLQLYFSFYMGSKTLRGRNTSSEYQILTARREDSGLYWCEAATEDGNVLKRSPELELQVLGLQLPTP
Sequence of human FcγRIIIB (O75015 17-200 limits assumed): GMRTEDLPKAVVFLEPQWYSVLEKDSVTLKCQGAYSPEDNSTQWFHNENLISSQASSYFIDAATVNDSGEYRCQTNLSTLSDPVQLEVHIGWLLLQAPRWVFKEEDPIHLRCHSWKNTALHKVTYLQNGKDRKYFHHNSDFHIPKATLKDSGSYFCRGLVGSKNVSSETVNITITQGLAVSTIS

B1: AB0621 F3' CEACAM5 TriNKET (bispecific antibody, human IgG1, kappa)
chain: DIVMTQSPDSLAVSLGERATINCKSSHSLLYGNFQNNYLAWYQQKPGQPPKLLIYWASTRESGVPDRFSGSGSGTDFTLTISSLQAEDVAVYYCQQYYSYPYTFGCGTKLEIKGGGGSGGGGSGGGGSGGGGSQVQLVQSGAEVKKPGASVKVSCKASGYTFTAYTIHWVRQAPGQCLEWMGYINPSSGYTEYNQKFKDRTTLTADTSISTAYMELSRLRSDDTAVYYCTREGGLLWFDYWGQGTLVTVSSGSDKTHTCPPCPAPELLGGPSVFLFPPKPKDTLMISRTPEVTCVVVDVSHEDPEVKFNWYVDGVEVHNAKTKPREEQYNSTYRVVSVLTVLHQDWLNGKEYKCKVSNKALPAPIEKTISKAKGQPREPRVYTLPPCRDELTKNQVSLTCLVKGFYPSDIAVEWESNGQPENNYKTTPPVLVSDGSFTLYSKLTVDKSRWQQGNVFSCSVMHEALHNHYTQKSLSLSPG
heavy: EVQLVESGGGLVKPGGSLRLSCAASGFTFSSYSMNWVRQAPGKGLEWVSSISSSSSYIYYADSVKGRFTISRDNAKNSLYLQMNSLRAEDTAVYYCARGAPIGAAAGWFDPWGQGTLVTVSSASTKGPSVFPLAPSSKSTSGGTAALGCLVKDYFPEPVTVSWNSGALTSGVHTFPAVLQSSGLYSLSSVVTVPSSSLGTQTYICNVNHKPSNTKVDKKVEPKSCDKTHTCPPCPAPELLGGPSVFLFPPKPKDTLMISRTPEVTCVVVDVSHEDPEVKFNWYVDGVEVHNAKTKPREEQYNSTYRVVSVLTVLHQDWLNGKEYKCKVSNKALPAPIEKTISKAKGQPREPQVCTLPPSRDELTENQVSLTCLVKGFYPSDIAVEWESNGQPENNYKTTPPVLDSDGSFFLYSWLTVDKSRWQQGNVFSCSVMHEALHNHYTQKSLSLSPG
light: DIQMTQSPSSVSASVGDRVTITCRASQGISSWLAWYQQKPGKAPKLLIYAASSLQSGVPSRFSGSGSGTDFTLTISSLQPEDFATYYCQQGVSFPRTFGGGTKVEIKRTVAAPSVFIFPPSDEQLKSGTASVVCLLNNFYPREAKVQWKVDNALQSGNSQESVTEQDSKDSTYSLSSTLTLSKADYEKHKVYACEVTHQGLSSPVTKSFNRGEC
On to B1, for which the binding result with Human CEACAM8 is “no binding (tested: up to 600 and 1200 nM)”; with Human CEACAM1, “no binding (tested: up to 600 and 1200 nM)”; with human FcγRIIIB, “no binding (tested: titrated from 3000 nM)”. The figures for the Kd with Cynomolgus CEACAM5 and in the experiment with human FcγRIIA R131 [1] were 6.5 nM and 330 nM, respectively. This molecule came in with a kon with Cynomolgus CEACAM5 of 130000 M⁻¹ s⁻¹. Also, the KD/KD ref with human FcγRI is 0.64 fold; with human FcγRIIA H131, 0.68 fold; with human FcγRIIA R131 [2] it was 0.68 fold; with human FcγRIIB, 0.94 fold. In experiment [3], the “EC50 (read off the curve)” value is ~50 nM.

B2: AB0264 F3' CEACAM5 TriNKET (bispecific antibody, human IgG1, kappa)
chain: B1 chain with S210P
heavy: B1 heavy
light: B1 light
Turning to B2, in the experiment with Human CEACAM1, the binding result was “no binding (tested: up to 600 and 1200 nM)”. In addition, in experiment [3], the “EC50 (read off the curve)” value is ~40 nM.

In general, Kd refers to the constant that tells how readily two partners part at equilibrium. As usually defined, the kon is the rate constant with which the complex forms. A higher kon goes with faster complex formation. By EC50 (read off the curve) is commonly meant the concentration giving half of the maximal effect. A lower EC50 (read off the curve) goes with an effect from little substance.
